Assay results taken from the DeepSol protein solubility set.

assay: soluble on expression in E. coli; label from the status in PepcDB or PDB records

Row | Sequence | soluble on expression in E. coli
1 | MGSDKIHHHHHHMTHQANDAVAPASGMIELSHSFDANRFLAAVDRDERATLIANLQLVHLKSGQVLCEPGEMLTAVYLPVTTAISLQYVSTGGMTLEVAQIGSESVVCDDVIGGSGRMPCRAVACRDGFVYRLDRRIFAAAFDASPVIRHLVFVCVRLLMAQVAQITFCSRHHVLKHQLCRWFLLAYDRSRSIEIQVTHSMLAQMLGVRRETVTDAAGEIQRLGLIRQYRSSIVLADLAGLEKLSCGCRAIVRDEMKRILSADSGVSAAARA | not soluble
2 | MGHHHHHHSHMCNTPTYCDLGKAAKDVFNKGYGFGMVKIDLKTKSCSGVMEFSTSGHAYTDTGKASGNLETKYKVCNYGLTFTQKWNTDNTLGTEISWENKLAEGLKLTLDTIFVPNTGKKSGKLKASYKRDCFSVGSNVDIDFSGPTIYGWAVLAFEGWLAGYQMSFDTAKSKLSQNNFALGYKAADFQLHTHVNDGTEFGGSIYQKVNEKIETSINLAWTAGSNNTRFGIAAKYMLDCRTSLSAKVNNASLIGLGYTQTLRPGVKLTLSALIDGKNFSAGGHKVGLGFELEA | not soluble
3 | MRKEVEQLALMGAMPDEADERITAALVDEYADLLGKIVKPVTLDEAHILIKLFPPTALYGIEWTLLHLIESVYSEIKSLEYRELINECNSTEFKKMLVQRLNNSQQKKITNEAG | not soluble
4 | MITLFQFPAAFNVPNASPYCLKLETWLRLAGLEYQVKVVSDPRKAPKGKLPYVRIEGEAIGDSEIVIRTLGERYGVTLDAGLDARGKGWARAITRLCDEHLYYLMLYFRWFDEDSWRVLKPVFFGSLPFGVRDAVAWAMRRKVRATLRAQGLGVHGRDELLAFARDDLDALDGLLGQVPYYGGEHPCSADAAAYGILANLIEATLDTPLSHVARGYPRLVAYCERMRERVWSELEHHHHHH | soluble
5 | MPLQQTLGVDCQTAADAGGEPHCFAGPVRERRMDSVLVIGGGRFIGRHTVTEFRDAGYDVTMLTRGRRQNPFTNAEVAHIEGDRRERDTLETARERVNPDVVVDCVAYFPEDVRVATDVFADVGAYVYISSGAAYGAERTPKREGETPLAGCTAEQATTDSAETYGPRKAEGDREVFAAAEDGVQAMSVRPTVVYGPYDYTERFAYWVDRVAEYDRVVVPSDGLSLWQMAYVEDVASALRLVAERGTAGEAYNVGDEHAPTLREWVDLLARVHETDVETIGVGERELRAAGLAPDDFPIYRDSPHLLSTAKLRGLGWSSTPHETALAVTVAEHLENDRTGREFGPDRDTEAALIDRLTE | not soluble
6 | MSLLALGIEGTAHTLGIGIVSEKKVLANVFDTLTTEKGGIHPKEAAEHHARLMKPLLKKALEKAGISMDDIDVIAFSQGPGLGPALRVVATAARALAIRYNKPIVGVNHCIAHVEITKMFGIKDPVGLYVSGGNTQVLALEGGRYRVFGETLDIGIGNAIDVFARELGLGFPGGPKLEKLAEKGKNYIDLPYAVKGMDLSFSGLLTEAIRKYRSGKFRVEDLAYSFQETAFAALVEVTERALAHTEKKEVVLVGGVAANNRLREMLKIMAEDRGVKFFVPPYDLCRDNGAMIAYTGLRMYKAGISFPLEKTIVKQKFRTDEVEITWEGHHHHHH | not soluble
7 | MSIRSWPAAERPRERLLELGAASLSDAELLAIFLRTGVAGKSAVDLARHLLNQFDGLRSLLDADQPAFTAQLGLGPAKFAQLQAVMEMARRHMAESLRRDSALENPAQVRNYLKAQLRHEPHEVFACLFLDNKHRVMTFEILFRGTINASYVHPRQVVKRALAHNAASLILCHNHPSGITTPSRSDIDLTKRLKEALKLVDVHVLDHVIVGDGEPLSMVEKGLM | not soluble
8 | MPSMLERISKNLVKEIGSKDLTPVKYLLSATKLRQFVILRKKKDSRSSFWEQSDYVPVEFSLNDILEPSSSVLETVVTGPFHFSDIMIQKHKADMGVNVGIEVSVSGEASVDHGCSLEFQIVTIPSPNLEDFQKRKLLDPEPSFLKECRRRGDNLYVVTEAVELINNTVLYDSSSVNILGKIALWITYGKGQGQGESLRVKKKALTLQKGMVMAYKRKQLVIKEKAILISDDDEQRTFQDEYEISEMVGYCAARSEGLLPSFHTISPTLFNASSNDMKLKPELFLTQQFLSGHLPKYEQVHILPVGRIEEPFWQNFKHLQEEVFQKIKTLAQLSKDVQDVMFYSILAMLRDRGALQDLMNMLELDSSGHLDGPGGAILKKLQQDSNHAWFNPKDPILYLLEAIMVLSDFQHDLLACSMEKRILLQQQELVRSILEPNFRYPWSIPFTLKPELLAPLQSEGLAITYGLLEECGLRTELDNPRSTWDVEAKMPLSALYGTLSLLQQLAEA | soluble
9 | MKKILILLTLCAFAFGASECDRKIDRINKEISFSKAHNDTARTLSLELALKQVQNDCAKDPMFYDKKLEAKKLKEQEVEKIEKELDALKEQKDYMSKAEYKAKKEALKEQKEKIKKLEHHHHHH | not soluble
